Assay results published in article PMC11257983 (2024).

B1: Flag-CNK^2–549 [Drosophila] / GST-HYP [Drosophila] (parent complex)
chain 1: AYINIAEWTPDQVTDWIKGLDESMKGYLYEFSKQEIGGRALLNIRPYELENLGMLRIGHQEIVLEAVENLRNFHYHLKNDNLQFMALHVATAAKNLHRELARNHAESTKIDTRILHDITRTIATLKPLVGSLERTPFRKQEMYREYCGNVLKCGLELATIAHRDRFALQPVPAIRQSAERLENLANFVIQDISDPMVLQPASLNLVTLKKRESELGFNIESSYNGIHRVTDIKYNSPAHNSGKIEDGDEIVQINYQTVVGWQHRTVLEHLREALPDVVLTVKKRPKHTKMFGQIYMQPYRLPSKKRNMAARWAAQMPSPRAAFLTLDTEQLATGGTGSAVPDPSKSLSSEKREVLTKANPVSSASDSDSSCSDIPTPTDPKLAAREIRLYYPKPRALLQRRNTICGCEYLSLKNSDLVVPSWHERKPGIGSPTNCDPGSPSIRDKSISFGYGLEMAARPTTCIGIAGDTSTDKARRMFHEARKLKQLTEDSQREFLVDRYKPGVSKVVRFDAKEDYVMKNEKFICNVENTILETFEPIPFADEGDEDA
chain 2: MGEETINSTQNKTRTKTTRPKAVYLWTVSDVLKWYRRHCGEYTQYEQLFAQHDITGRALLRITDSSLQRMGVTDNRDREAIWREIVKQRLKTDIMEIRDMERLNIY

Variants of: B1
Assay: GST pull-down, immunoblot quantification; S2 cells; GST-HYP, V5-KSR, Myc-MEK co-expressed; anti-Flag (CNK) blot; parent: 1

Variant	ratio to parent
chain 1 AYINIAEWTPDQVTDWIKGLDESMKGYLYEFSKQEIGGRALLNIRPYELENLGMLRIGHQEIVLEAVENLRNFHYHLKNDNLQFMALHVATAAKNLHRELARNHAESTKIDTRILHDITRTIATLKPLVGSLERTPFRKQEMYREYCGNVLKCGLELATIAHRDRFALQPVPAIRQSAERLENLANFVIQDISDPMVLQPASLNLVTLKKRESELGFNIESSYNGIHRVTDIKYNSPAHNSGKIEDGDEIVQINYQTVVGWQARTVLEHLREALPDVVLTVKKRPKHTKMFGQIYMQPYRLPSKKRNMAARWAAQMPSPRAAFLTLDTEQLATGGTGSAVPDPSKSLSSEKREVLTKANPVSSASDSDSSCSDIPTPTDPKLAAREIRLYYPKPRALLQRRNTICGCEYLSLKNSDLVVPSWHERKPGIGSPTNCDPGSPSIRDKSISFGYGLEMAARPTTCIGIAGDTSTDKARRMFHEARKLKQLTEDSQREFLVDRYKPGVSKVVRFDAKEDYVMKNEKFICNVENTILETFEPIPFADEGDEDA [chain 1 H263A]	0.95
chain 1 AYINIAEWTPDQVTDWIKGLDESMKGYLYEFSKQEIGGRALLNIRPYELENLGMLRIGHQEIVLEAVENLRNFHYHLKNDNLQFMALHVATAAKNLHRELARNHAESTKIDTRILHDITRTIATLKPLVGSLERTPFRKQEMYREYCGNVLKCGLELATIAHRDRFALQPVPAIRQSAERLENLANFVIQDISDPEVLQPASLNLVTLKKRESELGFNIESSYNGIHRVTDIKYNSPAHNSGKIEDGDEIVQINYQTVVGWQHRTVLEHLREALPDVVLTVKKRPKHTKMFGQIYMQPYRLPSKKRNMAARWAAQMPSPRAAFLTLDTEQLATGGTGSAVPDPSKSLSSEKREVLTKANPVSSASDSDSSCSDIPTPTDPKLAAREIRLYYPKPRALLQRRNTICGCEYLSLKNSDLVVPSWHERKPGIGSPTNCDPGSPSIRDKSISFGYGLEMAARPTTCIGIAGDTSTDKARRMFHEARKLKQLTEDSQREFLVDRYKPGVSKVVRFDAKEDYVMKNEKFICNVENTILETFEPIPFADEGDEDA [chain 1 M196E]	0.65

Variants of: B1
Assay: as above
Remark: another data set of the same source

Variant	ratio to parent
chain 1 AYINIAEWTPDQVTDWIKGLDESMKGYLYEFSKQEIGGRALLNIRPYELENLGMLRIGHQEIVLEAVENLRNFHYHLKNDNLQFMALHVATAAKNLHRELARNHAESTKIDTRILHDITRTIATLKPLVGSLERTPFRKQEMYREYCGNVLKCGLELATIAHRDRFALQPVPAIRQSAERLENLANFVIQDISDPEVLQPASLNLVTLKKRESELGFNIESSYNGIHRVTDIKYNSPAHNSGKIEDGDEIVQINYQTVVGWQHRTVLEHLREALPDVVLTVKKRPKHTKMFGQIYMQPYRLPSKKRNMAARWAAQMPSPRAAFLTLDTEQLATGGTGSAVPDPSKSLSSEKREVLTKANPVSSASDSDSSCSDIPTPTDPKLAAREIRLYYPKPRALLQRRNTICGCEYLSLKNSDLVVPSWHERKPGIGSPTNCDPGSPSIRDKSISFGYGLEMAARPTTCIGIAGDTSTDKARRMFHEARKLKQLTEDSQREFLVDRYKPGVSKVVRFDAKEDYVMKNEKFICNVENTILETFEPIPFADEGDEDA [chain 1 M196E]	0.55

Variants of: B1
Assay: GST pull-down, immunoblot quantification; S2 cells; only Flag-CNK2–549 and GST-HYP co-expressed; anti-Flag (CNK) blot; parent: 1

Variant	ratio to parent
chain 1 AYINIAEWTPDQVTDWIKGLDESMKGYLYEFSKQEIGGRALLNIRPYELENLGMLRIGHQEIVLEAVENLRNFHYHLKNDNLQFMALHVATAAKNLHRELARNHAESTKIDTRILHDITRTIATLKPLVGSLERTPFRKQEMYREYCGNVLKCGLELATIAHRDRFALQPVPAIRQSAERLENLANFVIQDISDPEVLQPASLNLVTLKKRESELGFNIESSYNGIHRVTDIKYNSPAHNSGKIEDGDEIVQINYQTVVGWQHRTVLEHLREALPDVVLTVKKRPKHTKMFGQIYMQPYRLPSKKRNMAARWAAQMPSPRAAFLTLDTEQLATGGTGSAVPDPSKSLSSEKREVLTKANPVSSASDSDSSCSDIPTPTDPKLAAREIRLYYPKPRALLQRRNTICGCEYLSLKNSDLVVPSWHERKPGIGSPTNCDPGSPSIRDKSISFGYGLEMAARPTTCIGIAGDTSTDKARRMFHEARKLKQLTEDSQREFLVDRYKPGVSKVVRFDAKEDYVMKNEKFICNVENTILETFEPIPFADEGDEDA [chain 1 M196E]	0.82

Variants of: B1
Assay: GST pull-down, immunoblot quantification; S2 cells; GST-HYP + RRKM (Ha-RASV12, Pyo-RAF, V5-KSR, Myc-MEK) co-expressed; anti-Flag (CNK) blot; parent: 1

Variant	ratio to parent
chain 1 AYINIAEWTPDQVTDWIKGLDESMKGYLYEFSKQEIGGRALLNIRPYELENLGMLRIGHQEIVLEAVENLRNFHYHLKNDNLQFMALHVATAAKNLHRELARNHAESTKIDTRILHDITRTIATLKPLVGSLERTPFRKQEMYREYCGNVLKCGLELATIAHRDRFALQPVPAIRQSAERLENLANFVIQDISDPEVLQPASLNLVTLKKRESELGFNIESSYNGIHRVTDIKYNSPAHNSGKIEDGDEIVQINYQTVVGWQHRTVLEHLREALPDVVLTVKKRPKHTKMFGQIYMQPYRLPSKKRNMAARWAAQMPSPRAAFLTLDTEQLATGGTGSAVPDPSKSLSSEKREVLTKANPVSSASDSDSSCSDIPTPTDPKLAAREIRLYYPKPRALLQRRNTICGCEYLSLKNSDLVVPSWHERKPGIGSPTNCDPGSPSIRDKSISFGYGLEMAARPTTCIGIAGDTSTDKARRMFHEARKLKQLTEDSQREFLVDRYKPGVSKVVRFDAKEDYVMKNEKFICNVENTILETFEPIPFADEGDEDA [chain 1 M196E]	0.34
